Measurements taken from patent US20090232803A1 (Novartis, published 2009).

How the values were obtained:
[1] = biological target: T1, recombinant human IL-1β (human, UniProt P01584 117-269); test: Biacore competition: AAL160 immobilised on the chip, recombinant human IL-1β (8 nM) injected with increasing concentrations of soluble receptor type I; readout is % binding of IL-1β to AAL160 (competitor: AAL160)
T1 construct: mature; it is entered under this molecule; also called human interleukin 1 beta; huIL-1β

[2] = biological target: T1, recombinant human IL-1β; test: BIAcore SPR; AAL160 immobilised, recombinant IL-1β 0.5 to 12 nM, 1:1 model, n = 15
Description: Data analysis is performed using the BIAevaluation software.

[3] = biological target: T1, recombinant human IL-1β; test: Biacore; AAL160 immobilised, cytokine at 8 nM (or 20 nM in the case of IL-1β)
[4] = biological target: T2, Human IL-1Ra (human, UniProt P18510 26-177); test: as above
T2 construct: also called IL-1 receptor antagonist

[5] = biological target: T3, Rat IL-1β (rat, UniProt Q63264 117-268); test: as above
T3 sequence (looked up): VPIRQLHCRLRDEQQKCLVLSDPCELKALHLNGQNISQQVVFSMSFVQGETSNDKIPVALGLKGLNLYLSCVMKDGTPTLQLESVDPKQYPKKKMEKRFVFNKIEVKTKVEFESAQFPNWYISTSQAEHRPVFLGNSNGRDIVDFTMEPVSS

[6] = biological target: T4, Mouse IL-1β (mouse, UniProt P10749 118-269); test: as above
T4 construct: also called murine IL-1β
T4 sequence (looked up): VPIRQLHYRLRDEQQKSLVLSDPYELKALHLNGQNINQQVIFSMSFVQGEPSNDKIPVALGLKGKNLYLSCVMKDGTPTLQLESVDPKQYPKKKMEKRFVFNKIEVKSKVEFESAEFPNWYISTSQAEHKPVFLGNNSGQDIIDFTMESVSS

[7] = biological target: T5, Human IL-1α (human, UniProt P01583 113-271); test: as above
T5 sequence (looked up): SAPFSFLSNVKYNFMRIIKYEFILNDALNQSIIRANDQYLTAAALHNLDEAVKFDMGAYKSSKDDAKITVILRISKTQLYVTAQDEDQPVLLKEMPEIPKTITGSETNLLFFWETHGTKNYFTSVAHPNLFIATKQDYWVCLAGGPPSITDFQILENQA

[8] = biological target: T6, Cynomolgus IL-1β (cynomolgus monkey, UniProt P79182 117-268); test: as above
T6 construct: also called cynomolgus monkey IL-1β
T6 sequence (looked up): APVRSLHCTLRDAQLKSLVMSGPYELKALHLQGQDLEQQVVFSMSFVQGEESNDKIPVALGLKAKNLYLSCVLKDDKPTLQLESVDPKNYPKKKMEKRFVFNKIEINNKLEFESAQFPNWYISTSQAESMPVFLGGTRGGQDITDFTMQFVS

[9] = biological target: T2, Human IL-1Ra; test: Biacore, AAL160 immobilised
[10] = biological target: T3, Rat IL-1β; test: Biacore, AAL160 immobilised
[11] = biological target: T4, Mouse IL-1β; test: Biacore, AAL160 immobilised
[12] = biological target: T5, Human IL-1α; test: Biacore, AAL160 immobilised
[13] = biological target: T1, recombinant human IL-1β; test: cell-based or functional assay

T2 sequence (P18510 26-177 limits assumed): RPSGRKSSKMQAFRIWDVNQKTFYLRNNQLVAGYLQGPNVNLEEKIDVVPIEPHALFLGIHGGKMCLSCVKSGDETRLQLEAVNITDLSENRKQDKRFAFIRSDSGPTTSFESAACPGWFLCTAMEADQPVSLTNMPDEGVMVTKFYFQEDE

B1: recombinant human soluble IL-1 receptor type I (receptor, UniProt P14778 18-332, looked up)
chain: LEADKCKEREEKIILVSSANEIDVRPCPLNPNEHKGTITWYKDDSKTPVSTEQASRIHQHKEKLWFVPAKVEDSGHYYCVVRNSSYCLRIKISAKFVENEPNLCYNAQAIFKQKLPVAGDGGLVCPYMEFFKNENNELPKLQWYKDCKPLLLDNIHFSGVKDRLIVMNVAEKHRGNYTCHASYTYLGKQYPITRVIEFITLEENKPTRPVIVSPANETMEVDLGSQIQLICNVTGQLSDIAYWKWNGSVIDEDDPVLGEDYYSVENPANKRRSTLITVLNISEIESRFYKHPFTCFAKNTHGIDAAYIQLIYPVT
notes: soluble; also called soluble IL-1 type I receptor; receptor I
**Q.** How did the IC50 [1] turn out when B1 was run?
**A.** 3400 pM

B2: AAL160 antibody (human IgG1/κ monoclonal antibody to human IL-1β) (antibody, V domains shown)
VH: EVQLVQSGAEVKKPGESLKISCKGSGYSFTSYWIGWVRQMPGKGLEWMGIIYPSDSDTRYSPSFQGQVTISADKSISTAYLQWSSLKASDTAMYYCARYTNWDAFDIWGQGTMVTVSS
VL: EIVLTQSPATLSLSPGERATLSCRASQSVSSYLAWYQQKPGQAPRLLIYDASNRATGIPARFSGSGSGTDFTLTISSLEPEDFAVYYCQQRSNWMFPFGQGTKLEIK
notes: It was purified from hybridoma supernatant on protein A; also called NVP AAL 160 NX-1; hybridoma # 476
**Q.** How did the Kd [2] turn out when B2 was run?
**A.** 397 pM

**Q.** What about the koff [2] of the same binder?
**A.** 0.000153 s⁻¹

**Q.** And the kon [2]?
**A.** 391000 M⁻¹ s⁻¹

**Q.** And the “Percent of total binding” value [3]?
**A.** 100%

**Q.** And the “Percent of total binding” value [4]?
**A.** 1.2%

**Q.** And the “Percent of total binding” value [5]?
**A.** 3%

**Q.** What about the “Percent of total binding” value [6] of the same binder?
**A.** 2.8%

**Q.** And the “Percent of total binding” value [7]?
**A.** 0.7%

**Q.** What about the “Percent of total binding” value [8] of the same binder?
**A.** 96.4%

**Q.** Does B2 bind [9]?
**A.** no binding (tested: 8 nM (or 20 nM in the case of IL-1β))

**Q.** Does B2 bind [10]?
**A.** no binding (tested: 8 nM (or 20 nM in the case of IL-1β))

**Q.** Does B2 bind [11]?
**A.** no binding (tested: 8 nM (or 20 nM in the case of IL-1β))

**Q.** Does B2 bind [12]?
**A.** no binding (tested: 8 nM (or 20 nM in the case of IL-1β))

**Q.** What about the “IC50, IL-6 secretion, Recombinant (primary human dermal fibroblasts stimulated with recombinant IL-1β)” value [13] of the same binder?
**A.** 340 pM

**Q.** What about the “IC50, IL-6 secretion, cond. Medium (primary human dermal fibroblasts stimulated with conditioned medium of LPS-stimulated human PBMCs, natural IL-1β)” value [13] of the same binder?
**A.** 600 pM

**Q.** And the “IC50, PGE2 production, cond. Medium (primary human dermal fibroblasts stimulated with conditioned medium of LPS-stimulated human PBMCs, natural IL-1β)” value [13]?
**A.** 790 pM
